This note sets out measurements from patent US20130158238A1 (THERACLONE SCIENCES, published 2013).

Numbering of substitutions follows the chain as printed.

Experiment [1] has as its target M2 protein of A/Puerto Rico/8/34 (H1N1), on cells (Influenza A virus A/Puerto Rico/8/34 (H1N1)) (UniProt P06821). Nature of the experiment: flow cytometry on MDCK cells infected with A/Puerto Rico/8/34. (In general: A flow cytometer gives signals particle by particle.)
The target of experiment [2] is M2 protein of A/Hong Kong/483/1997, on cells (Influenza A virus A/Hong Kong/483/97 (H5N1)). Nature of the experiment: FACS, supernatant on CHO cells stably expressing M2 of A/Hong Kong/483/97.
The target of experiment [3] is M2 protein on influenza A/Puerto Rico/8/34 (H1N1) virus particles (Influenza A virus A/Puerto Rico/8/34 …, UniProt P06821 1-97). Nature of the experiment: surface plasmon resonance, Fab on influenza virus. (In general: Surface plasmon resonance follows binding to a sensor surface in real time, without labels.)

One may read the EC50 (read off the curve) as the concentration giving half of the maximal effect. A low value points to a more potent agent. TCN-031 (antibody) gave an EC50 (read off the curve) in experiment [1] of 200 ng/mL.

For the molecule TCN-032 (antibody), the EC50 (read off the curve) in experiment [1] is 100 ng/mL.

B1: 3248_P18 (antibody, V domains shown)
VH: QVQLQESGPGLVKPSETLSLTCTVSGGSISAYHWSWIRQPPGKGLEWIGHIFDSGSTYYNPSLKSRVTISLDASKNQLSLRLTSVTASDTAIYYCARPLGSRYYYGMDVWGQGTTVTVSS
VL: DIQMTQSPSSLSASVGDRVTITCRASQSISRYLNWYQQKPGKAPKLLIYGASTLQNGAPSRFSGSGSGTDFTLTISSLQPEDSATYLCQQSYSVPAFGGGTKVEVK
The molecule B1 came in with an FACS M2-HK MFI in experiment [2] of 967 MFI.

B2: 3244_I10 (antibody, V domains shown)
VH: QVQLQESGPGLLKPSDTLALTCTVSGGSITSDYWSWIRQPPGRGLDWIGFFYNGGSTKYNPSLKSRVTISADTSKNQLSLKLTSVTAADTGVYYCARHDAKFSGSYYVASWGQGTRVTVSS
VL: DIQMTQSPSSLSASVGDRVTISCRASQSISTYLNWYQQQPGKAPKVLIFGATNLQSGVPSRFSGSGSGTDFTLTISSLQPEDFATYYCQQSYNTPLIFGQGTKLEIK
With B2, the FACS M2-HK MFI in experiment [2] is 434 MFI.

B3: 3243_J07 (antibody, V domains shown)
VH: B2 VH with A100V
VL: B2 VL with F49S
On to B3, for which the FACS M2-HK MFI in experiment [2] turned out to be 131 MFI.

B4: 3253_P10 (antibody, V domains shown)
VH: B2 VH
VL: B2 VL with F49S, N53D
The molecule B4 had an FACS M2-HK MFI in experiment [2] of 43 MFI.

B5: 3139_P23 (antibody, V domains shown)
VH: QVQLQESGPRLVKPSESLSLTCTVSGGSISNSFWGWIRQPPGEGLEWIGYVYNSGNTKYNPSLKSRVTISRDTSKSQLYMKLRSVTAADTAVYYCARHDDASHGYSISWGHGTLVTVSS
VL: DIQMTQSPSSLSASVGDRVTITCRASQTISTYLNWYQQKSGKAPKLLIYAASGLQSGVPSRFSGSGSGTDFTLTISSLQPEDFATYFCQQSYNTPLTFGQGTKVEIK
As for B5, the FACS M2-HK MFI in experiment [2] was 110 MFI.

B6: TCN-032 Fab fragment (Fab, V domains shown)
VH: QVQLQESGPGLVKPSETLSLTCTVSGSSISNYYWSWIRQSPGKGLEWIGFIYYGGNTKYNPSLKSRVTISQDTSKSQVSLTMSSVTAAESAVYFCARASCSGGYCILDYWGQGTLVTVSS
VL: DIQMTQSPSSLSASVGDRVTITCRASQNIYKYLNWYQQRPGKAPKGLISAASGLQSGVPSRFSGSGSGTDFTLTITSLQPEDFATYYCQQSYSPPLTFGGGTRVEIK
Broadly, the Kd is a measure of binding affinity in units of concentration. Low readings indicate higher affinity, high ones lower affinity. Broadly, the koff is a measure of how fast the partners let go of each other. The low end stands for a long-lived complex, the high end for a short-lived complex. As a reminder, the kon is the second-order rate constant of association. A high value points to fast association. Consider B6, for which, in experiment [3], binding was characterised by a dissociation constant (Kd) of 3.2 nM, the koff was found to be 0.0023 s⁻¹ and the kon was found to be 740000 M⁻¹ s⁻¹.

B7: 3259_J21 (antibody, V domains shown)
VH: QVQLQESGPRVVRPSETLSLTCTVSGGSISSYNWIWIRQPPGKGLEWIGHIYDYGRTFYNSSLQSRPTISVDASKNQLSLRLTSVTASDTAVYYCARPLGILHYYAMDLWGQGTTVTVSS
VL: DIQMTQSPLSVSVSVGDRVTIACRASQSIDKFLNWYQQKPGKAPKLLIYGASNLHSGAPSRFSASGSGTDFTLTITNIQTEDFATYLCQQSFSVPAFGGGTKVEIK
As to B7, the FACS M2-HK MFI in experiment [2] worked out at 1670 MFI.

B8: 3241_G23 (antibody, V domains shown)
VH: QVQLQQSGPGLVKPSQTLSLTCTVSGGPVSGGGYSWNWIRQRPGQGLEWVGFMFHSGSPRYNPTLKSRITISVDTSKNLVSLKLSSVTAADTAVYFCARVGQMDKYYAMDVWGQGTTVTVSS
VL: DIQMTQSPSSLSSSVGDRVTITCRASQSIGAYVNWYQQKAGKAPQVLIFGASNLQSGVPSRFSGSGSGTDFTLTISSLQPEDFATYFCQQTYSTPITFGQGTRLEIK
Regarding B8, in experiment [2], the FACS M2-HK MFI was 1700 MFI.

B9: TCN-031 Fab fragment (Fab, V domains shown)
VH: EVQLVESGGGLVQPGGSLRISCAASGFTVSSNYMSWVRQAPGKGLEWVSVIYSGGSTYYADSVKGRFSFSRDNSKNTVFLQMNSLRAEDTAVYYCARCLSRMRGYGLDVWGQGTTVTVSS
VL: DIQMTQSPSSLSASVGDRVTITCRTSQSISSYLNWYQQKPGKAPKLLIYAASSLQSGVPSRFSGSGSGTDFTLTISGLQPEDFATYYCQQSYSMPAFGQGTKLEIK
On to B9, for which, in experiment [3], the Kd is 14 nM, the koff was determined as 0.014 s⁻¹ and the kon turned out to be 1e+06 M⁻¹ s⁻¹.

B10: 3245_O19 (antibody, V domains shown)
VH: EVQLVESGGGLVQPGGSLRLSCTASGLSVSSTYMNWVRQAPGKGLEWVSVFYSETRTYYADSVKGRFTVSRHNSNNTLYLQMNSLRVEDTAVYYCARVQRLSYGMDVWGQGTTVTVSS
VL: DIQMTQSPSSLSASVGDRVTITCRASQSISTYLNWYQKRPGKAPKLLVYGASTLQSGVPSRFSGSGSGTDFTLTIASLQPEDSATYYCQQTYSIPLFGQGTRLEIK
In experiment [2], B10 came in with an FACS M2-HK MFI of 919 MFI.

B11: 3244_H04 (antibody, V domains shown)
VH: B10 VH with V87A
VL: B10 VL with T53S, T85V
Regarding B11, in experiment [2], the FACS M2-HK MFI turned out to be 963 MFI.

B12: 3136_G05 (antibody, V domains shown)
VH: QVQLQESGPGLVKPSETLSLTCSVSGGSISSDFWSWIRQPPGKGLEWIGYVYNRGSTKYSPSLKSRVTISADMSKNQFSLNMSSVTAADTAVYYCAKNGRSSTSWGIDVWGKGTTVTVSS
VL: DIQMTQSPSSLSASVGDRLTITCRASQSISTYLHWYQQKPGKAPKLLIYAASSLQSGVPSRFSGSRSGTDFTLTISSLQPDDFATYYCQQSYSPPLTFGPGTKVDMK
The molecule B12 yielded an FACS M2-HK MFI in experiment [2] of 109 MFI.

B13: 3252_C13 (antibody, V domains shown)
VH: QVQLQESGPGLVKPSETLSLTCTVSGASISSDYWSWIRLPPGKGLEWIGYIYNRGSTKYTPSLKSRVTISLDTAENQFSLRLRSVTAADTAIYYCARHVGGHTYGIDYWGQGTLVTVSS
VL: DIQMTQSPSSLSASVGDRVTITCRASQSISNYLNWYQHKPGEAPKLLNYAASSLQSGVPSRFSASGSGTDFTLTISSLQPEDFATYYCQQSYNTPITFGQGTRLEIK
B13 showed an FACS M2-HK MFI in experiment [2] of 449 MFI.

B14: 3362_B11 (antibody, V domains shown)
VH: QVQLQASGPGLVKPSETLSLTCTVSGDSITSGAYYWTWIRQHPGKGLEWIGYIYYSGNTYYNPSLKSRVTISLDTSKNQFSLKVNSVTAADTAVYYCARAASTSVLGYGMDVWGQGTTVTVSS
VL: B13 VL with N31R, H38Q, K39E, E42K, N48V, A64G, N93S, I96L
Regarding B14, the FACS M2-HK MFI in experiment [2] was 218 MFI.

B15: 3420_I23 (antibody, V domains shown)
VH: QVQLQESGPGLVKPSETLSVTCKVSGDSISSYSWSWIRQPPGKGLEWVGYLYYSGSTKYNPSLKSRTTISVDTSTNQLSLKLSFVTAADTAVYFCARTGSESTTGYGMDVWGQGTTVTVSS
VL: B13 VL with N31T, H38Q, E42K, N48I, Q55H, A64G, T72A, N93S, T94P
For B15, in experiment [2], the FACS M2-HK MFI worked out at 112 MFI.

B16: 3255_J06 (antibody, V domains shown)
VH: B13 VH with I92V
VL: B13 VL with T74S, S77G, Q100P
B16 came in with an FACS M2-HK MFI in experiment [2] of 442 MFI.

B17: 3260_D19 (antibody, V domains shown)
VH: DMQLVESGGGLVPPGGSLRLSCAASGFSVSDNYINWVRQAPGKGLDWVSVFYSADRTSYADSVKGRFTVSSHDSKNTVYLQMNSLRAEDTAVYYCARVQKSYYGMDVWGQGTTVTVSS
VL: GIQMTQSPSSLSASVGDRVTITCRASQSISRYLNWYLQKPGKAPKLLISGASSLQSGVPSRFSGTGSGTEFTLTISSLQPEDFATYYCQQTFSIPLFGQGTKVEIK
In turn, B17 yielded an FACS M2-HK MFI in experiment [2] of 846 MFI.

B18: 3242_P05 (antibody, V domains shown)
VH: B17 VH
VL: B17 VL
In experiment [2], B18 showed an FACS M2-HK MFI of 596 MFI.
